From patent US20040002593A1 (BURNHAM INSTITUTE, published 2004) come the findings set out here.

For one data set, the target named is T1, ASC in pGilda (human, UniProt Q9ULZ3 1-195).
T1 construct: Yeast two-hybrid construct
Nature of the data set: yeast two-hybrid, Leu read-out. As for the experimental part: (§1) Colonies were plated on both LEU+ and LEU− media and also used for a β-Gal-assay.

In a further data set the target is T2, ASC-CARD in pGilda (human, UniProt Q9ULZ3 107-195).
T2 construct: domain: CARD; Yeast two-hybrid construct; also called CARD domain of ASC
T2 sequence (looked up): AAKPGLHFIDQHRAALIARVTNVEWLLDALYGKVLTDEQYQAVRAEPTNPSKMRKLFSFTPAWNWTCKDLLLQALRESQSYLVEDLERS
Nature of the data set: yeast two-hybrid, β-Gal read-out. Here is the method: as §1

B1: endogenous IKKα (protein)
chain: MERPPGLRPGAGGPWEMRERLGTGGFGNVCLYQHRELDLKIAIKSCRLELSTKNRERWCHEIQIMKKLNHANVVKACDVPEELNILIHDVPLLAMEYCSGGDLRKLLNKPENCCGLKESQILSLLSDIGSGIRYLHENKIIHRDLKPENIVLQDVGGKIIHKIIDLGYAKDVDQGSLCTSFVGTLQYLAPELFENKPYTATVDYWSFGTMVFECIAGYRPFLHHLQPFTWHEKIKKKDPKCIFACEEMSGEVRFSSHLPQPNSLCSLVVEPMENWLQLMLNWDPQQRGGPVDLTLKQPRCFVLMDHILNLKIVHILNMTSAKIISFLLPPDESLHSLQSRIERETGINTGSQELLSETGISLDPRKPASQCVLDGVRGCDSYMVYLFDKSKTVYEGPFASRSLSDCVNYIVQDSKIQLPIIQLRKVWAEAVHYVSGLKEDYSRLFQGQRAAMLSLLRYNANLTKMKNTLISASQQLKAKLEFFHKSIQLDLERYSEQMTYGISSEKMLKAWKEMEEKAIHYAEVGVIGYLEDQIMSLHAEIMELQKSPYGRRQGDLMESLEQRAIDLYKQLKHRPSDHSYSDSTEMVKIIVHTVQSQDRVLKELFGHLSKLLGCKQKIIDLLPKVEVALSNIKEADNTVMFMQGKRQKEIWHLLKIACTQSSARSLVGSSLEGAVTPQTSAWLPPTSAEHDHSLSCVVTPQDGETSAQMIEENLNCLGHLSTIIHEANEEQGNSMMNLDWSWLTE
For the molecule B1, in the data set with Myc-ASC-PAAD, the “TNFα-induced activation of endogenous IKKα (in vitro kinase assay, phosphorylation of GST-IKBα substrate by immunoprecipitated IKKα)” value is given as “ASC-PAAD potently suppressed TNFα-induced activation of endogenous IKKα in these cells”.

B2: ASC-CARD in pJG 4-5 (other, human, UniProt Q9ULZ3 107-195, looked up, not shown: large carriers)
chain: AAKPGLHFIDQHRAALIARVTNVEWLLDALYGKVLTDEQYQAVRAEPTNPSKMRKLFSFTPAWNWTCKDLLLQALRESQSYLVEDLERS
notes: domain: CARD; Yeast two-hybrid construct; also called CARD domain of ASC
As for B2, the binding result with ASC in pGilda and with ASC-CARD in pGilda was “binds” in each case.
